Literature values in patent US7713705B2, “Markers for differential diagnosis and methods of use thereof” (Biosite, Inc., priority 2002, dated 2010).
Read-outs that look alike come from different tables or passages of the source.

Legend:
[1] = plasma, in mice
[2] = bloodstream of rats
[3] = in animals

C-reactive protein [CRP]
half-life (bloodstream): approximately 19 hours

CK-BB: brain-specific creatine kinase isoform, an 85 kDa cytosolic protein
half-life (in vivo): 60 to 300 min

Interleukin-1β [IL-1β]
biphasic physiological half-life, first phase (in vivo): 5 minutes | biphasic physiological half-life, second phase (in vivo): 4 hours

Interleukin-6 [IL-6]
half-life (bloodstream): 252 min

Malondialdehyde-modified low-density lipoprotein [MDA-modified LDL]
half-life [1]: less than 5 minutes

Phosphoglyceric acid mutase [PGAM]
half-life [2]: less than 2 hours

Platelet factor 4 [PF4]
biphasic half-life, first phase (plasma): 1 min | extended half-life, second phase (plasma): 20 min | half-life extended by the presence of heparin (plasma): 20 to 40 min | biphasic half-life, first phase (serum): 1 min | extended half-life, second phase (serum): 20 min | half-life extended by the presence of heparin (serum): 20 to 40 min

Platelet-derived growth factor [PDGF]
biphasic half-life, first phase [3]: approximately 5 minutes | biphasic half-life, second phase [3]: ~60 min

Prothrombin fragment 1+2 [F1+2]
half-life (plasma): approximately 90 minutes

S-100β: β subunit of S-100, a 21 kDa cytosolic Ca2+-binding protein; specific to the nervous system
biological half-life (in vivo): 2 hours

Tumor necrosis factor α [TNFα]
half-life (bloodstream): approximately 1 hours

thrombin-ATIII complex [TAT]
half-life (bloodstream): approximately 5 minutes

B1: β-thromboglobulin (protein, UniProt P02775 48-128, looked up)
Beta-thromboglobulin: GKEESLDSDLYAELRCMCIKTTSGIHPKNIQSLEVIGKGTHCNQVEVIATLKDGRKICLDPDAPRIKKIVQKKLAGDESAD
modifications: Beta-thromboglobulin
biphasic half-life, first phase (plasma): 10 min | extended half-life, second phase (plasma): 60 min | biphasic half-life, first phase (serum): 10 min | extended half-life, second phase (serum): 60 min

B2: neuron-specific enolase (protein, UniProt P09104 2-434, looked up)
Gamma-enolase: SIEKIWAREILDSRGNPTVEVDLYTAKGLFRAAVPSGASTGIYEALELRDGDKQRYLGKGVLKAVDHINSTIAPALISSGLSVVEQEKLDNLMLELDGTENKSKFGANAILGVSLAVCKAGAAERELPLYRHIAQLAGNSDLILPVPAFNVINGGSHAGNKLAMQEFMILPVGAESFRDAMRLGAEVYHTLKGVIKDKYGKDATNVGDEGGFAPNILENSEALELVKEAIDKAGYTEKIVIGMDVAASEFYRDGKYDLDFKSPTDPSRYITGDQLGALYQDFVRDYPVVSIEDPFDQDDWAAWSKFTANVGIQIVGDDLTVTNPKRIERAVEEKACNCLLLKVNQIGSVTEAIQACKLAQENGWGVMVSHRSGETEDTFIADLVVGLCTGQIKTGAPCRSERLAKYNQLMRIEEELGDEARFAGHNFRNPSVL
biological half-life (in vivo): 48 hours
